Assay results from patent US20220056123A1, “USE OF IL-1BETA BINDING ANTIBODIES” (NOVARTIS AG, priority 2018, published 2022).
Like-named read-outs stand apart in the source and are kept apart here.

Columns and labels:
MDA-MB231 = test: TNBC MDA-MB231 xenograft in humanized BLT mice; assay type: in vivo, humanized mouse; conditions: single agent arm, compared to isotype control
Description: • I. Tumor models: The role of IL-1β in tumor immunity and efficacy of IL-1β blocking antibodies were tested in the following preclinical models: • Xenograft tumors in humanized mouse models: NSCLC (H358), TNBC (MDA-MB231) and CRC (SW480) • Syngeneic tumor models: TNBC (4T1) and lung (LL-2) cancer • II. […] Combination treatments include chemotherapeutic agent, docetaxel (6.25 mg/Kg QW IV), PD-1 pathway inhibitors (anti-human PD-1, pembrolizumab 10 mg/Kg Q5D IP or anti-mouse PD-1, clone 1D2 10 mg/Kg QW IP) and anti-mouse VEGF blocking antibody (clone 4G3, 5 mg/Kg Q5D) were used in combination with anti-IL-1β antibody. Appropriate isotype controls were used. In all experiments, dosing was initiated after tumor implantation. • III. Experimental readouts: activity of therapeutic agents in preclinical models were assessed by the following: • Tumor volume was determined by measurement with calipers throughout the course of the study. Tumor weights in milligrams were determined at end of study • Immunohistochemistry analysis was performed on FFPE NSCLC (H358) xenograft tissue • Changes in immune populations in peripheral blood in CRC (SW480) xenograft humanized model and tumors in syngeneic models (4T1 and LL-2) were assessed by flow cytometry using markers for T cell, myeloid populations

[1] = tested on: locally advanced or metastatic non-small cell lung cancer; set-up: species or system human; conditions: in vivo
Source text: A Randomized, Double-Blind Phase III Study of Pembrolizumab+Platinum-based Chemotherapy with or without Canakinumab as First Line Therapy for Locally Advanced or Metastatic Non-squamous and Squamous Non-small Cell Lung Cancer Subjects The study population includes adult patients with first-line locally advanced stage IIIB (not eligible for definitive chemo-radiation therapy) or stage IV metastatic non-small cell lung cancer (NSCLC), without EGFR mutations or ALK translocation. Only patients who have not previously been treated with any systemic anti-cancer therapy are included, with the exception of neo-adjuvant or adjuvant therapy (if relapse has occurred more than 12 months from the end of that therapy). In addition, subjects should be without known B-RAF mutation or ROS-1 genetic aberrations.
The non-randomized safety run-in portion of the study will be done with canakinumab in combination with pembrolizumab and three platinum-based doublet chemotherapies: carboplatin+pemetrexed (patients with non-squamous tumors), cisplatin+pemetrexed (patients with non-squamous tumors), and carboplatin+paclitaxel (patients with either squamous or non-squamous tumor). Non-squamous tumor histology subjects who receive paclitaxel-carboplatin with pembrolizumab in the safety-run-in and achieve stable disease (SD) or better will receive pemetrexed maintenance after completing induction. […] The secondary objectives are to characterize safety and tolerability, pharmacokinetics, immunogenicity, and to assess the preliminary clinical anti-tumor activity. The analysis to determine the recommended phase III dose regimen (RP3R) will be conducted when at least 6 evaluable patients in each of the 3 treatment cohorts have been observed for dose limiting toxicity (DLT) for at least 42 days at the starting dose level to establish the RP3R.
At data cut-off, 6 patients (3 in A, 2 in B and 1 in C) of the 30 treated patients, discontinued the study treatment. The primary reason for treatment discontinuation was PD (3 patients in A and 1 patient each in B and C)

mouse IL-1β = mouse IL-1β (Mus musculus, UniProt P10749); test: Cross-reactivity with mouse IL-1β; assay type: binding
Chain of mouse IL-1β (P10749 118-269): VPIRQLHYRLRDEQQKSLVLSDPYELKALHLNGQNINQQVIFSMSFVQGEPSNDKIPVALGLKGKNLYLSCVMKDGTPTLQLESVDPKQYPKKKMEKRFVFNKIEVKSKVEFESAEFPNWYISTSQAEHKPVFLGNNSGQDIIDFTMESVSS

[2] = CANTOS immunogenicity, bridging ECLIA for anti-drug antibodies; assay type: in vivo, human
Description: During the CANTOS trial, blood samples for immunogenicity assessments were collected at baseline Month 12, 24 and end of study visit. Immunogenicity was analyzed using a bridging immunogenicity electrochemiluminescence immunoassay (ECLIA). Samples were pre-treated with acetic acid and neutralized in buffer containing labeled drug (biotinylated ACZ885 and sulfo-TAG (Ruthenium) labeled ACZ885). Anti-canakinumab antibodies (anti-drug antibodies) were captured by a combination of biotinylated and sulfo-TAG labeled forms of ACZ885. Complex formation was subsequently detected by electrochemiluminescence by capturing complexes on Mesoscale Discovery Streptavidin (MSD) plates.

canakinumab: high-affinity, fully human monoclonal antibody of the IgG1/k to interleukin-1β
animals with slower tumor growth (MDA-MB231): 100 % of animals
AEs leading to discontinuation of one of the study drugs [1]: 3 patients
AEs leading to dose interruption: decreased neutrophil count [1]: 3 patients
AEs leading to dose interruption: decreased white blood cell count [1]: 1 patient
AEs leading to dose interruption: neutropenia [1]: 1 patient
AEs leading to dose reduction: myalgia [1]: 1 patients
AEs leading to dose reduction: peripheral neuropathy [1]: 2 patients
Grade 5 adverse events [1]: No Grade 5 adverse events were observed
patients with dose limiting toxicity (DLT) [1]: 1 patient
patients with grade 3 AEs [1]: 13 patients
patients with grade 4 AE [1]: 1 patient
cross-reactivity with mouse IL-1β (mouse IL-1β): does not cross-react to murine IL-1β
cross-reactivity with mouse IL-1β (mouse IL-1β; listed as Canakinumab): does not cross-react with mouse IL-1β
patients with treatment-emergent anti-canakinumab antibodies ([2]; canakinumab 150 mg group): 0.4%
patients with treatment-emergent anti-canakinumab antibodies ([2]; canakinumab 300 mg group): 0.3%
association of anti-drug antibodies with AEs or hsCRP response ([2]; in vivo): not associated with immunogenicity related AEs or altered hsCRP response
